Test results: US20240301023A1 (PREVECEUTICAL MEDICAL, published 2024)
Square brackets hold non-standard residues; d marks the D form. Primed or numbered codes have the meaning given here. Ends that are not written are not given here. Phe(4-NO2) = N[C@@H](Cc1ccc([N+](=O)[O-])cc1)C(=O)O; Phe(4-Cl) = N[C@@H](Cc1ccc(Cl)cc1)C(=O)O; Phe(4-F) = N[C@@H](Cc1ccc(F)cc1)C(=O)O; Api = NC1(C(=O)O)CCNCC1; NMA″ = not defined here; NMA = N-methylarginine; GABA = NCCCC(=O)O; Sar = CNCC(=O)O

B1: SEQ ID NO. 9: NH2-Phe-Sar-(4-NO2)Phe-Leu-DArg-DArg-NH2 (peptide)
peptide: H-F[Sar][Phe(4-NO2)]L[dR][dR]-NH2
SMILES: CC(C)C[C@H](NC(=O)[C@H](Cc1ccc([N+](=O)[O-])cc1)NC(=O)CN(C)C(=O)[C@@H](N)Cc1ccccc1)C(=O)N[C@H](CCCNC(=N)N)C(=O)N[C@H](CCCNC(=N)N)C(N)=O
B2: SEQ ID NO. 28: NH2-Tyr-Sar-(4-Cl)Phe-Leu-Arg-DArg-C7H14-COOH (peptide)
peptide: H-Y[Sar][Phe(4-Cl)]LR[dR]
modifications: not fully specified (C-terminus); printed as NH2-Tyr-Sar-(4-Cl)Phe-Leu-Arg-DArg-C7H14-COOH
B3: SEQ ID NO. 16: NH2-Tyr-Sar-(4-Cl)Phe-Leu-Lys-DArg-NH2 (peptide)
peptide: H-Y[Sar][Phe(4-Cl)]LK[dR]-NH2
SMILES: CC(C)C[C@H](NC(=O)[C@H](Cc1ccc(Cl)cc1)NC(=O)CN(C)C(=O)[C@@H](N)Cc1ccc(O)cc1)C(=O)N[C@@H](CCCCN)C(=O)N[C@H](CCCNC(=N)N)C(N)=O
B4: SEQ ID NO. 13: NH2-Tyr-Sar-(4-Cl)Phe-Leu-NMA-DArg-NH2 (peptide)
peptide: H-Y[Sar][Phe(4-Cl)]LX[dR]-NH2
modifications: not fully specified (residue 5); printed as NH2-Tyr-Sar-(4-Cl)Phe-Leu-NMA-DArg-NH2
B5: CR845 (SEQ ID NO. 35: DPhe-DPhe-DLeu-DLys-Cap-CO2H) (peptide)
peptide: [dF][dF][dL][dK][Api]-OH
modifications: N-terminus assumed
SMILES: CC(C)C[C@@H](NC(=O)[C@@H](Cc1ccccc1)NC(=O)[C@H](N)Cc1ccccc1)C(=O)N[C@H](CCCCN)C(=O)NC1(C(=O)O)CCNCC1
B6: SEQ ID NO. 18: NH2-Tyr-Sar-(4-NO2)Phe-Leu-Arg-NMA-NH2 (peptide)
peptide: H-Y[Sar][Phe(4-NO2)]LRX-NH2
modifications: not fully specified (residue 6); printed as NH2-Tyr-Sar-(4-NO2)Phe-Leu-Arg-NMA-NH2
B7: SEQ ID NO. 1: NH2-Tyr-Gaba-Phe-Leu-Arg-Arg-NH2 (peptide)
peptide: H-Y[GABA]FLRR-NH2
SMILES: CC(C)C[C@H](NC(=O)[C@H](Cc1ccccc1)NC(=O)CCCNC(=O)[C@@H](N)Cc1ccc(O)cc1)C(=O)N[C@@H](CCCNC(=N)N)C(=O)N[C@@H](CCCNC(=N)N)C(N)=O

Key:
Experiment in all cases: cell-based or functional assay
[1] = target: Delta opioid receptor (DOR)
[2] = target: T1, Kappa opioid receptor (KOR) (Homo sapiens (Human), UniProt P41145 1-380)
T1 sequence (P41145 whole entry, form in doubt): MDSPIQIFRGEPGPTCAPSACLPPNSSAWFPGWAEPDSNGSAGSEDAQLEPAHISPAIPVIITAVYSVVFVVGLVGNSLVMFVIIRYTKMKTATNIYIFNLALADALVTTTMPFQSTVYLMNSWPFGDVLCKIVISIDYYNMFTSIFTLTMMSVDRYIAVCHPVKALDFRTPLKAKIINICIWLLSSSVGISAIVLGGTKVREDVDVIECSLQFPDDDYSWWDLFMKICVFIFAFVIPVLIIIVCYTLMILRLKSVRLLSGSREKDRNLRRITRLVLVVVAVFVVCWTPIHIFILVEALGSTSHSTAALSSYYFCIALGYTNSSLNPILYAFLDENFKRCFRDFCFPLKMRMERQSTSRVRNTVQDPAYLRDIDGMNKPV

[3] = target: Mu opioid receptor (MOR)
Mu opioid receptor (MOR), sequence (P35372 whole entry): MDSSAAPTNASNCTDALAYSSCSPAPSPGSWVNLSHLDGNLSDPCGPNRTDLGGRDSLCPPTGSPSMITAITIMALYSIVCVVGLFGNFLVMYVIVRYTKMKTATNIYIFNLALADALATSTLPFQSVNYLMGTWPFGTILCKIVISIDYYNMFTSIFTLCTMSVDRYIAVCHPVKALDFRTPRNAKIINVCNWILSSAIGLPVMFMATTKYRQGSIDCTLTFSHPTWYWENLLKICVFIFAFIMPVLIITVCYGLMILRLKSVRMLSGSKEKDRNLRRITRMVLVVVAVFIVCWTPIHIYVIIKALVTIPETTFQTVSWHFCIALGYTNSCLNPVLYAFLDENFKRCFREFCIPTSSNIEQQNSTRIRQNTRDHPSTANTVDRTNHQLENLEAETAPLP

[4] = target: Delta opioid receptor (DOR); remark: listed apart in the source
[5] = target: T1, Kappa opioid receptor (KOR); remark: listed apart in the source
[6] = target: Mu opioid receptor (MOR); remark: listed apart in the source

Binder	cAMP assay (ALPHAScreen), result at 1 µM peptide [1]	cAMP assay (ALPHAScreen), result at 10 µM peptide [1]	cAMP assay (ALPHAScreen), result at 1 µM peptide [2]	cAMP assay (ALPHAScreen), result at 10 µM peptide [2]	cAMP assay (ALPHAScreen), result at 1 µM peptide [3]	cAMP assay (ALPHAScreen), result at 10 µM peptide [3]	Activity (EC50, nM), cAMP assay [4]	Activity (EC50, nM), cAMP assay [5]	Activity (EC50, nM), cAMP assay [6]
H-Y[Sar][Phe(4-NO2)]L[dR]R-NH2 [SEQ ID NO. 5: NH2-Tyr-Sar-(4-NO2)Phe-Leu-DArg-Arg-NH2]	0.05	2.02	33.4	43.1	-0.05	4.32	–	–	–
B1	-0.5	1.83	2.46	23.1	-0.97	-0.64	–	–	–
H-Y[Sar][Phe(4-NO2)]L[NMA][dR]-NH2 [SEQ ID NO. 15: NH2-Tyr-Sar-(4-NO2)Phe-Leu-NMA-DArg-NH2]	–	–	–	–	–	–	1320 nM	13.5 nM	> 10000 nM
H-Y[Sar][Phe(4-NO2)]L[dK][dR]-NH2 [SEQ ID NO. 10: NH2-Tyr-Sar-(4-NO2)Phe-Leu-DLys-DArg-NH2]	-3	-0.95	8.47	25.1	-1.27	0.02	–	–	–
H-Y[Sar][Phe(4-Cl)]LR[dR]I[dR]-NH2 [SEQ ID NO. 25: NH2-Tyr-Sar-(4-Cl)Phe-Leu-Arg-DArg-Ile-DArg-NH2]	–	–	–	–	–	–	> 10000 nM	–	1610 nM
H-Y[Sar][Phe(4-F)]L[NMA][dR]-NH2 [SEQ ID NO. 14: NH2-Tyr-Sar-(4-F)Phe-Leu-NMA-DArg-NH2]	–	–	–	–	–	–	1660 nM	11.6 nM	4000 nM
B2	–	–	–	–	–	–	> 10000 nM	2.33 nM	> 10000 nM
B3	–	–	–	–	–	–	–	26 nM	> 10000 nM
B4	–	–	–	–	–	–	> 10000 nM	4.54 nM	> 10000 nM
H-Y[Sar][Phe(4-Cl)]LR[dR]-NH2 [SEQ ID NO. 11: NH2-Tyr-Sar-(4-Cl)Phe-Leu-Arg-DArg-NH2]	-1.18	4.27	27.7	34	-0.86	1.37	> 10000 nM	6.1 nM	> 10000 nM
H-Y[Sar]FLR[dR]-NH2 [SEQ ID NO. 3: NH2-Tyr-Sar-Phe-Leu-Arg-DArg-NH2]	-2.27	2.24	27.2	43.6	-0.68	2.17	> 10000 nM	74.7 nM	> 10000 nM
B5	-5.72	3.27	25.9	34.6	0.37	8.07	> 10000 nM	0.37 nM	> 10000 nM
B6	–	–	–	–	–	–	> 10000 nM	–	> 10000 nM
H-Y[Sar][Phe(4-Cl)]LR[NMA″]-NH2 (reading uncertain; also: printed as NH2-Tyr-Sar-(4-Cl)Phe-Leu-Arg-NMA-NH2) [SEQ ID NO. 17: NH2-Tyr-Sar-(4-Cl)Phe-Leu-Arg-NMA-NH2]	–	–	–	–	–	–	–	3.9 nM	> 10000 nM
H-Y[Sar][Phe(4-NO2)]LR[dR]-{C7H14‑CONH2} [SEQ ID NO. 31: NH2-Tyr-Sar-(4-NO2)Phe-Leu-Arg-DArg-C7H14-CONH2]	–	–	–	–	–	–	> 10000 nM	2.49 nM	> 10000 nM
H-Y[Sar]FLRR-NH2 [SEQ ID NO. 2: NH2-Tyr-Sar-Phe-Leu-Arg-Arg-NH2]	-0.47	22	21.6	32.4	-2.5	12.4	> 10000 nM	8.6 nM	6700 nM
H-Y[Sar]FL[dR]R-NH2 [SEQ ID NO. 6: NH2-Tyr-Sar-Phe-Leu-DArg-Arg-NH2]	-0.03	2.25	14.2	35.1	1.04	7.84	–	–	–
H-Y[Sar][Phe(4-F)]LR[dR]-NH2 [SEQ ID NO. 12: NH2-Tyr-Sar-(4-F)Phe-Leu-Arg-DArg-NH2]	–	–	–	–	–	–	> 10000 nM	6.7 nM	3450 nM
H-Y[Sar]FL[dR][dR]-NH2 [SEQ ID NO. 7: NH2-Tyr-Sar-Phe-Leu-DArg-DArg-NH2]	-0.68	2.53	18.3	36	0.13	4.19	–	–	–
H-Y[Sar][Phe(4-Cl)]LR[dR]-{C7H14‑CONH2} [SEQ ID NO. 24: NH2-Tyr-Sar-(4-Cl)Phe-Leu-Arg-DArg-C7H14-CONH2]	–	–	–	–	–	–	> 10000 nM	–	> 10000 nM
H-Y[Sar][Phe(4-NO2)]LR[dR]-NH2 [SEQ ID NO. 4: NH2-Tyr-Sar-(4-NO2)Phe-Leu-Arg-DArg-NH2]	-0.75	2.04	–	–	0.17	2.52	> 10000 nM	–	> 10000 nM
H-Y[Sar][Phe(4-Cl)]LR[dR]IR-NH2 [SEQ ID NO. 20: NH2-Tyr-Sar-(4-Cl)Phe-Leu-Arg-DArg-Ile-Arg-NH2]	–	–	–	–	–	–	3580 nM	–	> 10000 nM
B7	2.57	19.6	4.23	22.9	-6.78	7.28	–	–	–
